B1: 22205 (protein)
chain: MTIRLLCYMGFYFLGAGLMEADIYQTPRYLVIGTGKKITLECSQTMGHDKMYWYQQDPGMELHLIHYSYGVNSTEKGDLSSESTVSRIRTEHFPLTLESARPSHTSQYLCASSEARGLAEFTDTQYFGPGTRLTVLEDLKNVFPPEVAVFEPSEAEISHTQKATLVCLATGFYPDHVELSWWVNGKEVHSGVCTDPQPLKEQPALNDSRYCLSSRLRVSATFWQNPRNHFRCQVQFYGLSENDEWTQDRAKPVTQIVSAEAWGRADCGFTSESYQQGVLSATILYEILLGKATLYAVLVSALVLMAMVKRKDSRGRAKRSGSGATNFSLLKQAGDVEENPGPTSATMDWIWRILFLVGAATGAHSGPQVQLQESGGGLAQAGGSLRLSCAASGRTFSMGWFRQAPGKEREFVAAITYSGGSPYYASSVRGRFTISRDNAKNTVYLQMNSLKPEDTAVYYCAANPTYGSDWNAENWGQGTQVTVSSGSGGGGSGGGGSGGGGSFEQVQLQQPGAELVKPGASVKMSCKASGYAFSSYWINWMKQKPGQGLEWIGQIYPGDGDTNYNGKFKGRATLTADTSSSTAYMQLSSLTSEDSAVYFCARSITTVVGCAMDYWGQGTSVTVSSTRIQNPDPAVYQLRDSKSSDKSVCLFTDFDSQTNVSQSKDSDVYITDKCVLDMRSMDFKSNSAVAWSNKSDFACANAFNNSIIPEDTFFPSPESSCDVKLVEKSFETDTNLNFQNLSVIGFRILLLKVAGFNLLMTLRLWSSRAKRSGSGVKQTLNFDLLKLAGDVESNPGPSRGHMTEYKPTVRLATRDDVPRAVRTLAAAFADYPATRHTVDPDRHIERVTELQELFLTRVGLDIGKVWVADDGAAVAVWTTPESVEAGAVFAEIGPRMAELSGSRLAAQQQMEGLLAPHRPKEPAWFLATVGVSPDHQGKGLGSAVVLPGVEAAERAGVPAFLETSAPRNLPFYERLGFTVTADVEVPEGPRTWCMTRKPGA
B2: 22082 (protein)
chain: MALPVTALLLPLALLLHAARPQLQLQESGPGLVKPSETLSLTCTVSGDSISSGDYYWGWIRQPPGKGLEWIGHIYYSGVTYYNPSLKSRVTISVDTSRNQFSLKLSSVTAADTAVYYCTREDSSNWRSRGQGTLVTVSSLESGGGGSFEQLQLQESGPGLVKPSETLSLTCTVSGGSISSGDYYWGWIRQPPGKGLEWIGHIYYSGATYYNPSLKSRVTISVDTSRNQFSLKLSSVTAADTAVYYCTRDDSSNWRSRGQGTLVTVSSTRASTKGPSVFPLAPSSKSTSGGTAALGCLVKDYFPEPVTVSWNSGALTSGVHTFPAVLQSSGLYSLSSVVTVPSSSLGTQTYICNVNHKPSNTKVDKRVEPKSCIPEDTFFPSPESSCDVKLVEKSFETDTNLNFQNLSVIGFRILLLKVAGFNLLMTLRLWSSRAKRSGSGVKQTLNFDLLKLAGDVESNPGPSRGHMTEYKPTVRLATRDDVPRAVRTLAAAFADYPATRHTVDPDRHIERVTELQELFLTRVGLDIGKVWVADDGAAVAVWTTPESVEAGAVFAEIGPRMAELSGSRLAAQQQMEGLLAPHRPKEPAWFLATVGVSPDHQGKGLGSAVVLPGVEAAERAGVPAFLETSAPRNLPFYERLGFTVTADVEVPEGPRTWCMTRKPGA
B3: 22202 (protein)
chain: MALPVTALLLPLALLLHAARPACAGHLEQPQISSTKTLSKTARLECVVSGITISATSVYWYRERPGEVIQFLVSISYDGTVRKESGIPSGKFEVDRIPETSTSTLTIHNVEKQDIATYYCALWEAQQELGKKIKVFGPGTKLIITDKQLDKQLDADVSPKPTIFLPSIAETKLQKAGTYLCLLEKFFPDVIKIHWQEKKSNTILGSQEGNTMKTNDTYMKFSWLTVPEKSLDKEHRCIVRHENNKNGVDQEIIFPPIKTDVITMDPKDNCSKDANDTLLLQLTNTSAYYMYLLLLLKSVVYFAIITCCLLRRTAFCCNGEKSRAKRSGSGATNFSLLKQAGDVEENPGPTSATMDWIWRILFLVGAATGAHSGPQVQLQESGGGLAQAGGSLRLSCAASGRTFSMGWFRQAPGKEREFVAAITYSGGSPYYASSVRGRFTISRDNAKNTVYLQMNSLKPEDTAVYYCAANPTYGSDWNAENWGQGTQVTVSSGSGGGGSGGGGSGGGGSFEAIELVPEHQTVPVSIGVPATLRCSMKGEAIGNYYINWYRKTQGNTMTFIYREKDIYGPGFKDNFQGDIDIAKNLAVLKILAPSERDEGSYYCACDTLGMGGEYTDKLIFGKGTRVTVEPRSQPHTKPSVFVMKNGTNVACLVKEFYPKDIRINLVSSKKITEFDPAIVISPSGKYNAVKLGKYEDSNSVTCSVQHDNKTVHSTDFEVKTDSTDHVKPKETENTKQPSKSCHKPKAIVHTEKVNMMSLTVLGLRMLFAKTVAVNFLLTAKLFFLRAKRSGSGVKQTLNFDLLKLAGDVESNPGPSRAHMTEYKPTVRLATRDDVPRAVRTLAAAFADYPATRHTVDPDRHIERVTELQELFLTRVGLDIGKVWVADDGAAVAVWTTPESVEAGAVFAEIGPRMAELSGSRLAAQQQMEGLLAPHRPKEPAWFLATVGVSPDHQGKGLGSAVVLPGVEAAERAGVPAFLETSAPRNLPFYERLGFTVTADVEVPEGPRTWCMTRKPGA
B4: 22097 (protein)
chain: MALPVTALLLPLALLLHAARPQLQLQESGPGLVKPSETLSLTCTVSGDSISSGDYYWGWIRQPPGKGLEWIGHIYYSGVTYYNPSLKSRVTISVDTSRNQFSLKLSSVTAADTAVYYCTREDSSNWRSRGQGTLVTVSSLEGQPKANPTVTLFPPSSEELQANKATLVCLISDFYPGAVTVAWKADGSPVKAGVETTKPSKQSNNKYAASSYLSLTPEQWKSHRSYSCQVTHEGSTVEKTVAPTECSGRADCGFTSESYQQGVLSATILYEILLGKATLYAVLVSALVLMAMVKRKDSRGRAKRSGSGATNFSLLKQAGDVEENPGPTSMDWIWRILFLVGAATGAHSFEVQLLESGGGLIQPGGSLRLSCAASGFTFSSHAMTWVRQAPGKGLEWVSAISGSGDYTHYADSVKGRFTISRDNSKNTVYLQMNSLRAEDSAVYYCAKDEDGGSLLGHRGQGTLVTVSSTRASTKGPSVFPLAPSSKSTSGGTAALGCLVKDYFPEPVTVSWNSGALTSGVHTFPAVLQSSGLYSLSSVVTVPSSSLGTQTYICNVNHKPSNTKVDKRVEPKSCIPEDTFFPSPESSCDVKLVEKSFETDTNLNFQNLSVIGFRILLLKVAGFNLLMTLRLWSSRAKRSGSGVKQTLNFDLLKLAGDVESNPGPSRGHMTEYKPTVRLATRDDVPRAVRTLAAAFADYPATRHTVDPDRHIERVTELQELFLTRVGLDIGKVWVADDGAAVAVWTTPESVEAGAVFAEIGPRMAELSGSRLAAQQQMEGLLAPHRPKEPAWFLATVGVSPDHQGKGLGSAVVLPGVEAAERAGVPAFLETSAPRNLPFYERLGFTVTADVEVPEGPRTWCMTRKPGA
B5: 22200 (protein)
chain: MTIRLLCYMGFYFLGAGLMEADIYQTPRYLVIGTGKKITLECSQTMGHDKMYWYQQDPGMELHLIHYSYGVNSTEKGDLSSESTVSRIRTEHFPLTLESARPSHTSQYLCASSEARGLAEFTDTQYFGPGTRLTVLEDLKNVFPPEVAVFEPSEAEISHTQKATLVCLATGFYPDHVELSWWVNGKEVHSGVCTDPQPLKEQPALNDSRYCLSSRLRVSATFWQNPRNHFRCQVQFYGLSENDEWTQDRAKPVTQIVSAEAWGRADCGFTSESYQQGVLSATILYEILLGKATLYAVLVSALVLMAMVKRKDSRGRAKRSGSGATNFSLLKQAGDVEENPGPTSATMDWIWRILFLVGAATGAHSGPQVQLQESGGGLAQAGGSLRLSCAASGRTFSMGWFRQAPGKEREFVAAITYSGGSPYYASSVRGRFTISRDNAKNTVYLQMNSLKPEDTAVYYCAANPTYGSDWNAENWGQGTQVTVSSGSGGGGSGGGGSGGGGSFEAQTVTQSQPEMSVQEAETVTLSCTYDTSESDYYLFWYKQPPSRQMILVIRQEAYKQQNATENRFSVNFQKAAKSFSLKISDSQLGDAAMYFCAYRSAVNARLMFGDGTQLVVKPNTRIQNPDPAVYQLRDSKSSDKSVCLFTDFDSQTNVSQSKDSDVYITDKCVLDMRSMDFKSNSAVAWSNKSDFACANAFNNSIIPEDTFFPSPESSCDVKLVEKSFETDTNLNFQNLSVIGFRILLLKVAGFNLLMTLRLWSSRAKRSGSGVKQTLNFDLLKLAGDVESNPGPSRGHMTEYKPTVRLATRDDVPRAVRTLAAAFADYPATRHTVDPDRHIERVTELQELFLTRVGLDIGKVWVADDGAAVAVWTTPESVEAGAVFAEIGPRMAELSGSRLAAQQQMEGLLAPHRPKEPAWFLATVGVSPDHQGKGLGSAVVLPGVEAAERAGVPAFLETSAPRNLPFYERLGFTVTADVEVPEGPRTWCMTRKPGA
B6: 22207 (protein)
chain: MALPVTALLLPLALLLHAARPDIQMTQSPSSLSASVGDRVTITCKASDHINNWLAWYQQKPGQAPKLLIYGATTLETGVPSRFSGSGSGTDYTLTISSLQPEDFATYYCQQSWNTPWTFGQGTKLEIKRLEGQPKANPTVTLFPPSSEELQANKATLVCLISDFYPGAVTVAWKADGSPVKAGVETTKPSKQSNNKYAASSYLSLTPEQWKSHRSYSCQVTHEGSTVEKTVAPTECSPIKTDVITMDPKDNCSKDANDTLLLQLTNTSAYYMYLLLLLKSVVYFAIITCCLLRRTAFCCNGEKSRAKRSGSGATNFSLLKQAGDVEENPGPTSMDWIWRILFLVGAATGAHSFEQVQLQQPGAELVKPGASVKMSCKASGYAFSSYWINWMKQKPGQGLEWIGQIYPGDGDTNYNGKFKGRATLTADTSSSTAYMQLSSLTSEDSAVYFCARSITTVVGCAMDYWGQGTSVTVSSTRSQPHTKPSVFVMKNGTNVACLVKEFYPKDIRINLVSSKKITEFDPAIVISPSGKYNAVKLGKYEDSNSVTCSVQHDNKTVHSTDFEVKTDSTDHVKPKETENTKQPSKSCHKPKAIVHTEKVNMMSLTVLGLRMLFAKTVAVNFLLTAKLFFLRAKRSGSGVKQTLNFDLLKLAGDVESNPGPSRGHMTEYKPTVRLATRDDVPRAVRTLAAAFADYPATRHTVDPDRHIERVTELQELFLTRVGLDIGKVWVADDGAAVAVWTTPESVEAGAVFAEIGPRMAELSGSRLAAQQQMEGLLAPHRPKEPAWFLATVGVSPDHQGKGLGSAVVLPGVEAAERAGVPAFLETSAPRNLPFYERLGFTVTADVEVPEGPRTWCMTRKPGA

These molecules were tested on RAJI cells (assay: JNG assay, co-culture with RAJI cells). Settings: JNG cells expressing construct, co-culture with Raji.
Format: cell-based
Procedure, shortened: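 Read-out is NFAT-driven GFP measured by flow cytometry after ~4–18 h co-culture of SAR-expressing JNG cells with target cells (E:T about 1:2). SARs were introduced by lentiviral spinfection and selected with puromycin or blasticidin when possible; scores (+/- to 5+ ≈ 5–50% GFP+) are relative to parental JNG cells.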

**Q.** With B1 as the molecule, how does the “NFAT-GFP ASSAY: Raji” value read?
**A.** The value was “Raji (5+) (refer to approximately 5%, 10%, 20%, 30%, 40% and 50% GFP positive cells)”.

**Q.** For B2, which “NFAT-GFP ASSAY: Raji” value is on record?
**A.** Its value is “+/- (refer to approximately 5%, 10%, 20%, 30%, 40% and 50% GFP positive cells)”.

**Q.** For B3, which “NFAT-GFP ASSAY: Raji” value is on record?
**A.** Its value is “Raji (3+) (refer to approximately 5%, 10%, 20%, 30%, 40% and 50% GFP positive cells)”.

**Q.** Which “NFAT-GFP ASSAY: Raji” value does the source give for B4 here?
**A.** The value was “+ (refer to approximately 5%, 10%, 20%, 30%, 40% and 50% GFP positive cells)”.

**Q.** B5 was tested. Which “NFAT-GFP ASSAY: Raji” value did it give?
**A.** Its value is “+ (refer to approximately 5%, 10%, 20%, 30%, 40% and 50% GFP positive cells)”.

**Q.** Which “NFAT-GFP ASSAY: Raji” value does the source give for B6 here?
**A.** The value was “Raji (5+) (refer to approximately 5%, 10%, 20%, 30%, 40% and 50% GFP positive cells)”.
